Assay results as given in the nanobody polyreactivity screen of Harvey et al. (2022).

Assay: yeast display, Sf9 membrane polyspecificity reagent, FACS + sequencing; frameworks hold sequencing errors
How it was run: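 Polyreactivity labels are assigned by the sorting gate from which each nanobody was recovered. The gates were low and high (top ~1%), set on anti-HA fluorescence for expression and streptavidin fluorescence for reagent binding. Before sorting, galactose-induced (36–48 hours) yeast display cells were stained for 1 hour at 4 °C with 10% biotinylated, detergent-solubilized Sf9 membrane reagent.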

Row | Sequence | polyreactivity (PSR sort gate)
1 | QVQLVESDGGLVQAGGSLRLSCAASGSTFNVYAMGWNRQAPGKERELVAAITSGGSTYYADSVKGRFTISRDNANNTVYLQMISQKPEDTAVYYCADDVSLSVFKLDYWGQGTQLTVSS | low polyreactivity
2 | QVQLVESDGGLVQAGGSLRLSCAASGSTFTWNAMGWYRQAPGKERELVAAISGDGGSTYYADSVKGRFTISRDNAKNTVYLQMNSLKPEDTAVYYCAASSAHIYSYRYNYWGQGTQVTVSS | low polyreactivity
3 | QVQLVESGAGIVQAGGSHRLSCAASGFIFFGYAAMEWYRQAPGKERELVAAISWSGGSTYYADSVKGRFTISRDHAKYTVYLQMNSLKPEDTAVYYCNAVYLKLYPWLDYWGQVTQVTVSS | low polyreactivity
4 | QVQLVESGAGIVQAGGSLRLSCAASGLTFKVYAMGWYRQAPGKERELVAAISWSGGSTYYADSVKGRFTISRDNAKNTGYLQRNSLKPEDTAVYYCAVEPSYYVVFFQYDYWGQGTQVTVSS | low polyreactivity
5 | QVQLVESGAGIVQAGGSLRLSCAASGSIFRVYAMGWYRQAPWKERELVAAISRTGGSTYYADSVKGRFTISRDNAKNTVYLPMNSLQPEDTAVDYCAARQRYVGYYYWGQGTQVTVSS | high polyreactivity
6 | QVQLVESGAGIVQAGGSLRLSCAASGSIFYYNAMGVYRQAPGKERELVAAITSADSTNYADSVKGRFTISRDNAKNTVYLQMNSLKPEDTAVYFCAADFLAALTYYRTYDYWGQGTQVTVSS | low polyreactivity
7 | QVQLVESGAGIVQAGGSLRLTCAASGSTFVIYDMGWSRQAPGKERELVAAISYSGGSTYYADSVKGRFTISRDNAKNTVYLQMNSLKPEDTAVYYCAAEVPYYYPGFYSYYDDSDYWGQGTQVTVSS | low polyreactivity
8 | QVQLVESGAGLFQAGGRLRISCAPSGFIFVFNAMGWYRQAPGKERELVAAINRGDITNYADSVKGRFTISRDNAKNTVYLQMHSLSPVDTAVYFCAADGEDSLWTGYDYDYWGQGTQVTVST | low polyreactivity
9 | QVQLVESGAGLVHAGGSLRLCCAASGRIFNGYSMGWYRQAPGKERELVAGISYSGGSTYYADSVKGRFTISRDNAKNTVYLQMNSQKPEETAVYYCAKRPYYLGNRYRFDYWGQGTQVSVSS | high polyreactivity
10 | QVQLVESGAGLVHAGGSLRLSCAAYGRTFLAYAKGWYRQAHGKERELVAAISKSGGRTYYADSVKGRFTISRDYAKHTVYLQMNSLKPEDTAVYYCAADKQAYVTDDYWGQGTQVTVSS | high polyreactivity
11 | QVQLVESGAGLVHAGGSLRLSCASSGSIFNVYAMGWYRQAPGKERELVAAIRSSGGSTYYADSVKGRFTISRDKAKNTVNLQMNSLKPEDTAVYYCAAVTRAIRTWRMYYWGQGTQVTVSS | high polyreactivity
12 | QVQLVESGAGLVQAGGRLRISCAASGSTFDGNTMGWYRQAPGKERELVAAISGSGGSTYYADSVKGRFTISRDNAKNTVYLQMNSLKPEDTAVYYCAADFRVGRYDYWGQGTQVTVSS | high polyreactivity
13 | QVQLVESGAGLVQAGGSLGLSCAASGSNFIYNAMGLYRQAPGKERELVAAITDRSTKYADSVKGRFTISRDNAKYSGYVQMNSLKTEDTAVYYSNAYVWRWRYDSWGQVTQVTVSS | low polyreactivity
14 | QVQLVESGAGLVQAGGSLRFSCAASGFIFVDNTMGWSSQAPGKEMELVAAISYSAGSTYYADSVKGRFTISRDNAMNTVYLQMNCLKPEDTAVYDCAAQHSWVTSYLYSYDYWGQGTQVTVSS | low polyreactivity
15 | QVQLVESGAGLVQAGGSLRISCAASGSTFDGNDIGWYRQAPGKERELVAAITIGGGSTYYADSVKGRFTISRDNAKNTVYLQMNSLKPEDTAVYYCAKDDHTGVHTYPGDYWGQGTQVTVSS | low polyreactivity
16 | QVQLVESGAGLVQAGGSLRLCCAASGRTYRLYAMGWYRQAPGKERELVAAITRGGRTNYADSVKGRFTISRDNAINTVYLQMYSLKPEDIAVYYCAARYVERHTDYYYWGQGTQVTVSS | low polyreactivity
17 | QVQLVESGAGLVQAGGSLRLCCAASGSTFTKNAMGLYRQAPGKERELVAAISWRDGSTYYADSVKGRFTISRDNAKNTVYLQMNSLKPEDTAVYYCNAVRRSFGKYPGLLDYDYWGQGTQVTVSS | high polyreactivity
18 | QVQLVESGAGLVQAGGSLRLICAASGFIFADYAMGWYRQAPGKERELVAAITSSGSRTYYADSVKGRFTISRDNAKNTVYLQMNSLKPEDTAVYYCAVRGVYYYHFAFDYWGQGTQVTVSS | high polyreactivity
19 | QVQLVESGAGLVQAGGSLRLSCAASGFIFFYYAMGWYRQAPGKERELVAAISASGGSTYYADSVKGRFTISRDNAKNTVYLQLNSLKPEDTAVYYCAARYRKAESARWEYDYWGQGTQVTVSS | high polyreactivity
20 | QVQLVESGAGLVQAGGSLRLSCAASGFIFNRYAMGWYRQAPGKERELVAAIRGSGGSTYADSVKGRFTISRDNAKNTVYLQMNSLKPEDTAVYYCNKERPRRNGQVARYDYWGQGTQVTVSS | low polyreactivity
21 | QVQLVESGAGLVQAGGSLRLSCAASGFIFRGNTMGWYRQAPGKERELVASITRGGGRTYYADSVKGRFTISRDNAKNTVYLQMNSLKPEDTAVYYCAARTRSDNSYHGGEYWGQGTQVTVSS | high polyreactivity
22 | QVQLVESGAGLVQAGGSLRLSCAASGIFVRYGMGWYRQAPGKERELVAAISYGGGSTYYADSVKGRFTISRDNAKITVYLQMNSLKPEDTAVYYCAASYANRYKYDEYDYWGQGTQVTVSS | high polyreactivity

Row | Sequence | polyreactivity (PSR sort gate)
23 | QVQLVESGAGLVQAGGSLRLSCAASGITFSKYAMGWYRVARGKDRELVAAISSTASTNYADSVKGRFTISRDNAKNTVYLQMNSQKPDDTAVYYCNDVLFFQLFWTYDDYWGQGSQVTVSS | low polyreactivity
24 | QVQLVESGAGLVQAGGSLRLSCAASGLTFFYYAMGWYRQAPGKERELVAAIDNDGGTYYADSVKGRFTISRDNAKNTVYLLMNSLKPEDTAVYYCNADYQTVDDPYGYDYWGQGTQVTVSS | low polyreactivity
25 | QVQLVESGAGLVQAGGSLRLSCAASGRIFADYAMGWYRQAPGKERELVADIRQSGGRTYYADSVKGRFTISRDNAKNTVYLQMNSLKPEDTAVYYCATDYGSWGDYSGKYDYWGQGTQVTVSS | low polyreactivity
26 | QVQLVESGAGLVQAGGSLRLSCAASGRIFAGYAMGWYRQAPGKEMELVATISSGGSTYYADSVKGRFTISRYNAKNTVYLQMNSLKPEVTAVYYCAADNWVNDGDYCGQGTQVTVSS | low polyreactivity
27 | QVQLVESGAGLVQAGGSLRLSCAASGRIFHKYAMGWYRQAPGKERELVAAIDWSGGSTYYADSVKGRFTISRDNAKNTVYLQMNSLKPEDTAVYYCAAYWYYEDGQCEARLYGYDYWGQGTQVTVSS | low polyreactivity
28 | QVQLVESGAGLVQAGGSLRLSCAASGRIFLGNAMGWYRQAPGKERELVAAISRSGVTRYYADSVKGRFTISRYNGKNTVYLQMNSLKPEDTAVYYCAVERYDRFDHYYWVQGTQVTVSS | low polyreactivity
29 | QVQLVESGAGLVQAGGSLRLSCAASGRIFYKYVMGWYRQAPGKERELVATITSGGSTYYADSVKGRFTISRDNAKNTVYLQMNSLKPEDTAVYYCATKQSRTRYDRYGYWGQGTQVNVSS | high polyreactivity
30 | QVQLVESGAGLVQAGGSLRLSCAASGRTFFRYVMGWYRQAPGKERELVAAIRSGGSTNYADSVKGRFTISLDNAKNTVYLQMNSLKPEDTAVYYCAARKWHSAYDYWVQGTQVTVSS | high polyreactivity
31 | QVQLVESGAGLVQAGGSLRLSCAASGRTFRINTMGWSIQAPGKERELVATITGSGGSTYYADSVKGRFTISRDNAKNTVYLQMNSLKPEDTAVYYCAAVGDQNEYDYWGQGTQVTVSS | low polyreactivity
32 | QVQLVESGAGLVQAGGSLRLSCAASGRTFSAYAMGWYRQAPGKERELVAAITLSVGSTYYADSVKGRFTISRDNAKTTVYLQMNSLKPEDTAVYYCNKYKKGEGGITIVRFDYWGQGTQVTVSS | low polyreactivity
33 | QVQLVESGAGLVQAGGSLRLSCAASGSIFDYYAMGLYRQAPGKERELVAVITRGGSTYYADSVKGRFTISRDNAKNTDSLQMNSLKPEDTAVYYCNASRGYKSRYEYWGQGTQVTVSS | high polyreactivity
34 | QVQLVESGAGLVQAGGSLRLSCAASGSIFEYYAMGWYRQAPGKERELVAAISSGGPTYYADSVKGRFTISRDNAKNTVYLQMNSLKPEDTAVYYCNAALRYPDYDYWGQGTQVTVSS | low polyreactivity
35 | QVQLVESGAGLVQAGGSLRLSCAASGSIFRKYGMGLYRQAPGKDRELVATITSSGGSTYYADSVKGRFRISRDNAKNTVYVQMNSLIPEDTAVYYCAARWTYSFHWFSRYDYWGPGTQVTVSS | high polyreactivity
36 | QVQLVESGAGLVQAGGSLRLSCAASGSIFYYYAMGWYRQAPGKEREFVAAIRESGGSTYYADSVKGRFTISRDNAKNTVYLQMNSLKPEDTAVYYCAVRRPRRNYNYPYDYWGLGTQVTVSS | low polyreactivity
37 | QVQLVESGAGLVQAGGSLRLSCAASGSTFRSNAMGWYRPAPGKEREFVASITSRGGPTYYADSVKGRFTISRDNAKNTVYLQMKSLKPEDTAVYYCASARSYLTYFYHYDYWGQGTQVTVSS | low polyreactivity
38 | QVQLVESGAGLVQAGGSLRLSCAASGSTLVGNTMGWYRQSPGKERELVAAITGVGSTNYADSVKGRFTISRDNAKNTVYLQMNSLKPEDTAVYYCAVDGRSVQARWPRFDYWGQGTQVTVSS | low polyreactivity
39 | QVQLVESGAGLVQAGGSLRLSCAASGYAMGWYRQAPGKERELVAAITSNGGRTYYADSVKGRFTISRDYAKNTVYLEMNSLKPEDTAVYYCATRTGPHYKTRWTYDQGYWGQGTQVTVSS | low polyreactivity
40 | QVQLVESGAGLVQAGGSLRLSCAASGYIFGQNAMGWYRQAPGKERELVASISDGGSTYYADSVKGRFTISRDNAKNTVYLQMNSLKPEDTAVYYCAAGQDWGEKALGAWLFDYWGHGTQVTVSS | low polyreactivity
41 | QVQLVESGAGLVQAGGSLRLSCAASVSIFDIYAMGWYRQAPGKERELVADISWSGGSTYYADSVKGRFTISRDNAKNSVYLQMNSLKPEDTAVFDCAAELYGFTVDPGDYWGQGTQVTVSS | low polyreactivity
42 | QVQLVESGAGLVQAGGSLRLSSAASGSIFEPNAMGWYRQAPGKERELVAAITSGGTTYADSVKGRFTISRDNAKNSVYFQMNSLKPEDSAVYYCAAYYIFVYYYPFDYWGQGTQVTVSS | low polyreactivity
43 | QVQLVESGAGLVQAGGSLRLSWAASGSNYDIYAMGWYRQAPGKERELVAAITGSGGSTNYADSVKGRFTISRDNAKNTVYVQLNSLKPEDTAVYYCAAAGFDYPSDTYGYWGQGTQVTVSS | low polyreactivity
